Columns and labels:
[1] = target: T1, recombinant cynomolgus macaque VISTA (His-tagged) (cynomolgus macaque, UniProt A0A7N9IB00 33-194); assay: BLI (Octet QK384): His-tagged cynomolgus VISTA on anti-Penta-HIS tips, V4 1433 to 179.1 nM as analyte, global fit
T1 construct: also called cyno VISTA; cynomolgus monkey VISTA

[2] = target: T2, recombinant human VISTA (His-tagged) (human, UniProt Q9H7M9 33-194); assay: BLI (Octet QK384): His-tagged human VISTA on anti-Penta-HIS tips, V4 as analyte; value of the line above the sensorgram, which differs from the table below it
T2 construct: bought soluble protein (Sino Biological); also called hVISTA; human VISTA polypeptide

[3] = target: T2, recombinant human VISTA (His-tagged); assay: BLI (Octet QK384): His-tagged human VISTA on anti-Penta-HIS tips, V4 1000 to 31.3 nM as analyte, global fit; value of the table column kdis(1/s)
human B7H3 = target: T3, human B7H3 (human, UniProt Q5ZPR3 29-461, limits assumed); assay: ELISA, plate coated with the antigen
T3 construct: also called CD276
T3 sequence (looked up): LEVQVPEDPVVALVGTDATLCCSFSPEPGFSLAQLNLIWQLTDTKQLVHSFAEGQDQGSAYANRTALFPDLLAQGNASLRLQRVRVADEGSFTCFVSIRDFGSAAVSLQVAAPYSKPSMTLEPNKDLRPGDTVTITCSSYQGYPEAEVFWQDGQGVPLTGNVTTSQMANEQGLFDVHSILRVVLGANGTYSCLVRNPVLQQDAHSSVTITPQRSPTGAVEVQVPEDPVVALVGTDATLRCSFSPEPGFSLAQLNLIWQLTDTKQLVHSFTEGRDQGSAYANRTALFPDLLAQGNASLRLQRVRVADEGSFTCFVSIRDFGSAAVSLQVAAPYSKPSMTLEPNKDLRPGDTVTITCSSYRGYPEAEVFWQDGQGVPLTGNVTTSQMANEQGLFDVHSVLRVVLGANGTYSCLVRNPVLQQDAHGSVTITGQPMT

human PD-1 = human PD-1 (human, UniProt Q15116 25-167); assay: ELISA, plate coated with the antigen
[4] = target: T2, recombinant human VISTA (His-tagged); assay: antigen-binding ELISA; HMBD-002 in F8, day 30 at 40°C
[5] = target: T2, recombinant human VISTA (His-tagged); assay: ELISA, VISTA-HIS protein coated; ELISA, human VISTA-HIS
[6] = target: T2, recombinant human VISTA (His-tagged); assay: antigen-binding ELISA; HMBD-002 in F9, day 10 at 40°C
[7] = target: T2, recombinant human VISTA (His-tagged); assay: antigen-binding ELISA; HMBD-002 in F8, day 10 at 40°C
[8] = target: T2, recombinant human VISTA (His-tagged); assay: antigen-binding ELISA; HMBD-002 10 mg/mL in F2, day 0
[9] = target: T4, cynomolgus macaque VISTA expressed on cells (cynomolgus macaque, UniProt A0A7N9IB00 33-311); assay: flow cytometry, HEK293T cells expressing the NHP VISTA ortholog
T4 construct: whole, on cells; also called NHP VISTA on HEK293T cells; VISTA on NHP CD11b+ myeloid cells

[10] = target: T5, recombinant rat VISTA (His-tagged) (rat, UniProt A0ABK0L5H3 33-192); assay: SPR (Biacore), VISTA-HIS captured, antibody as analyte, 1:1 model; SPR (Biacore), rat VISTA
T5 sequence: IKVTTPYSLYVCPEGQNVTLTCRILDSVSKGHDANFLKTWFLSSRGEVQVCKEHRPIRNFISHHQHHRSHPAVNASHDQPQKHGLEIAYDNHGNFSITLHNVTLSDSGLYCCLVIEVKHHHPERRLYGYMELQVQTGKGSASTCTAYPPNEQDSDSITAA

[11] = target: T2, recombinant human VISTA (His-tagged); assay: antigen-binding ELISA; HMBD-002 in F10, day 30 at 40°C
[12] = target: T2, recombinant human VISTA (His-tagged); assay: antigen-binding ELISA; HMBD-002 in F5, day 30 at 40°C
[13] = target: T2, recombinant human VISTA (His-tagged); assay: antigen-binding ELISA; reference standard run with the day 30 samples
[14] = target: T2, recombinant human VISTA (His-tagged); assay: antigen-binding ELISA; HMBD-002 in F7, day 10 at 40°C
[15] = target: T2, recombinant human VISTA (His-tagged); assay: antigen-binding ELISA; HMBD-002 in F1, day 30 at 40°C
[16] = target: T2, recombinant human VISTA (His-tagged); assay: antigen-binding ELISA; HMBD-002 in F3, day 10 at 40°C
[17] = target: T2, recombinant human VISTA (His-tagged); assay: antigen-binding ELISA; HMBD-002 in F8, day 20 at 40°C

Sequence of human PD-1 (Q15116 25-167 limits assumed): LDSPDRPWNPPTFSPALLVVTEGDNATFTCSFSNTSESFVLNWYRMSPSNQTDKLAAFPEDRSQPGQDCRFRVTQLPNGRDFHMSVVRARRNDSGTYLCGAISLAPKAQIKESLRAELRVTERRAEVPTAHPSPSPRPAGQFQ

B1: anti-VISTA clone 4M2-C12 IgG1 (antibody)
heavy: not shown
light: DIVITQTPAILSTSPGEKVTMTCRASSSVGYIHWYQQKPGSSPKPWIYATSNLASGVPARFSGSGSGTSNSLTITRVEAEDAATYYCQQWSSYPPITFGGGTKLEVKRTVAAPSVFIFPPSDEQLKSGTASVVCLLNNFYPREAKVQWKVDNALQSGNSQESVTEQDSKDSTYSLSSTLTLSKADYEKHKVYACEVTHQGLSSPVTKSFNRGEC
notes: mouse variable regions on human IgG1/kappa constant regions; also called V4; V4pr
koff [1]: < 1e-07 s⁻¹ | kon [1]: 40200 M⁻¹ s⁻¹ | koff [2]: < 4.54e-07 s⁻¹ | koff [3]: < 1e-07 s⁻¹

B2: anti-VISTA clone V4-C27 IgG1 (antibody, V domains shown)
VH: QVQLQESGPGLVKPSDTLSLTCTVSGYSITSDYTWNWIRQTPGKGLEWIGHITYSGSVSYNPSLRSRVTISRDTSKNQFSLKLSSVTAADTATYSCARALYYPWYFDVWGTGTTVTVSS
VL: EIVLTQSPATLSLSPGERATLSCRASSSVGYIHWYQQKPGQAPRPLIYATYNRATGIPARFSGSGSGTDNTLTISSLEPEDSAVYYCQQWSSYPPITFGGGTKLEVKR
binding result (human B7H3): no binding (tested: log -7.5 M) | binding result (human PD-1): no binding (tested: log -7.5 M)

B3: V4-C26 hIgG4 (antibody)
heavy: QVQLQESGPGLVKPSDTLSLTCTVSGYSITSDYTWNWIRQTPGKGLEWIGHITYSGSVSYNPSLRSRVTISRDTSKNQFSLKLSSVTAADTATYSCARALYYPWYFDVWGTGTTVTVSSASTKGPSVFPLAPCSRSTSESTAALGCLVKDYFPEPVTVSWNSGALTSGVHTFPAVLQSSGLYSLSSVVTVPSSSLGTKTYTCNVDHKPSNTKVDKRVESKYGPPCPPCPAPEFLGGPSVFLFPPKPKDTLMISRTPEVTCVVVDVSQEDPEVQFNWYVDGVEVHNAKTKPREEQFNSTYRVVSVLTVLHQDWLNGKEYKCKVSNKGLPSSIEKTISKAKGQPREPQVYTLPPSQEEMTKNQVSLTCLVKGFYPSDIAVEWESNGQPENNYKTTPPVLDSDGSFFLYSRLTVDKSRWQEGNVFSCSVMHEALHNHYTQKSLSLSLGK
light: EIVLTQSPATLSLSPGERATLSCRASSSVGYIHWYQQKPGQAPRPIIYTTSNRATGIPARFSGSGSGTDNTLTISSLEPEDSAVYYCQQWSSYPPITFGGGTKLEVKRTVAAPSVFIFPPSDEQLKSGTASVVCLLNNFYPREAKVQWKVDNALQSGNSQESVTEQDSKDSTYSLSSTLTLSKADYEKHKVYACEVTHQGLSSPVTKSFNRGEC
notes: human IgG4 (S228P)/kappa format; also called HMBD-002; HMBD-002-V4C26
EC50 [4]: 0.0227 nM | EC50 [5]: 0.00512 nM | EC50 [6]: 0.0305 nM | EC50 [7]: 0.028 nM | EC50 [8]: 0.0339 nM | EC50 [9]: 2.57 nM | Kd [10]: 0.382 nM | EC50 [11]: 0.027 nM | EC50 [12]: 0.0223 nM | EC50 [13]: 0.0527 nM | EC50 [14]: 0.0339 nM | EC50 [15]: 0.0215 nM | EC50 [16]: 0.0348 nM | EC50 [17]: 0.0248 nM

Reference: patent publication US20250313631A1 (HUMMINGBIRD BIOSCIENCE PTE, published 2025)
